# Test: soluble on expression in E. coli; label from the status in PepcDB or PDB records
row,Sequence,soluble on expression in E. coli
1,MAHHHHHHSLIQAVLFDLDGTLADTALDLGGALNTLLARHGLPAKSMDEIRTQASHGAAGLIKLGAGITPDHPDYARWRTEYLDEYDSRYAQDTTLFDGVNELIAELGKRGIKWGIITNKPMRFTDKLVPKLGFIIPPAVVVSGDTCGEPKPSVKPMLYACGQIHADPQHTLYVGDAERDIQAGRNAGMTTVLAEWGYIAPEDDTGSWQADFHIRTPLDLLECLDKIQPEG,soluble
2,MAHHHHHHMSNNYFNNEAPPDNINNLSYDEGLEQQYNFTDNEEEIFSSFFSDNKKNICLPKSLREHMLIEYTAMFVNIEGDIAEFYLKLDNDVLIKFPFLHVDHPLHRYYEFVKLNTKKRLITKYPKIIPSPLKDLFQYVTDLENTKVINNEIKSKKLKEKQIEHVKNKKGNKQILMKQKENQSYSSLFMRYMQSDDEKSNSTVENDKNEEHNEDTLSNESMMEIDNIIKKLKDKKDKSSMQTARFYLQCIEKLKFLQYGTKQYKYFVQKLLYDQNRLNVNNSDIKVRQKIHSTDFLEFLLKTDEHKKSLDNVINEDIYEQQNSHETETERDDLQTMQDYRR,not soluble
3,MHALHFSASDKAALYREVLPQIESVVADETDWVANLANTAAVLKEAFGWFWVGFYLVDTRSDELVLAPFQGPLACTRIPFGRGVCGQAWAKGGTVVVGDVDAHPDHIACSSLSRSEIVVPLFSDGRCIGVLDADSEHLAQFDETDALYLGELAKILEKRFEASRQAV,soluble
4,MSMEPTLQSILDQRSLRWIFVGGKGGVGKTTTSCSLAIQLAKVRRSVLLLSTDPAHNLSDAFSQKFGKEARLVEGFDNLYAMEIDPNGSMQDLLAGQTGDGDAGMGGVGVMQDLAYAIPGIDEAMSFAEVLKQVNSLSYETIVFDTAPTGHTLRFLQFPTVLEKALAKVSQLSGQYGSLLNGILGGSGTLPNGQTLSDVMEKLDSLRVTISEVNAQFKDERLTTFVCVCIPEFLSLYETERMIQELANYGIDTHCIVVNQLLFPKPGSDCEQCTARRRMQKKYLDQIEELYDEEFNVVKMPLLVEEVRGKERLEKFSEMLIKPFVPPEHHHHHH,soluble
5,MGSDKIHHHHHHMKIAIITFFDNGNYGSELQTLAMNDYLNAKGHVTVFCKVKSSNKIIRAIELLYDKVLLKWYKITDKEKRQYLTDRAKNLSSQRNIPPKLRQYIHSFVNSHISFGCISRLLLFRKERFDAYICGSDQIWSALKMPLLPLNFLYGIDKKKKIAYAPSIGLDNPPYYYIREVEKYVKDFIYLSVREEDAKNVLKKQYGIEAMQVLDPTLLQGKGFWDSLLAIESKQVPTKPYVFCYFLGKLNEDIVTCINRIANGKCVMVLPYEEDCDLIKNGKYELADPLDFVNLIKHADYVLTDSFHGSIFSILYDKQFVVTKRTHVRRVSQTSRITSLLKIFNLQSQYCSGVDEIINALQNNIDYSFTHIQLEEEQRKSRLFLDGALNEIEKNIKS,not soluble
6,MVSVARELTVGINGFGRIGRLVLRACMEKGVKVVAVNDPFIDPEYMVYMFKYDSTHGRYKGSVEFRNGQLVVDNHEISVYQCKEPKQIPWRAVGSPYVVESTGVYLSIQAASDHISAGAQRVVISAPSPDAPMFVMGVNENDYNPGSMNIVSNASCTTNCLAPLAKVIHERFGIVEGLMTTVHSYTATQKTVDGPSRKAWRDGRGAHQNIIPASTGAAKAVTKVIPELKGKLTGMAFRVPTPDVSVVDLTCRLAQPAPYSAIKEAVKAAAKGPMAGILAYTEDEVVSTDFLGDTHSSIFDAKAGIALNDNFVKLISWYDNEYGYSHRVVDLLRYMFSRDAENLYFQ,soluble
7,GQGVSRSGALDLGALRSANRTVGNPSDMACVESVLGGLSFSCHGSAVIAITGAHTPVTITSASGLQWQASNYQPIELETGDRVSLGSPKAGLRSYLAIRGGFDVTPVLGSLSTDTLAQLGPEALATGDRLGFTAPVNGTSVSLNEAPAFELPTTANIVTLDVVMGPRTDWFTENAIQRLSSQLWRVTPQSNRVGIRLAGDTPLERSNHQELPSEGTSVGAIQVPASGQPVLFLADHPLTGGYPVIASVASHHLDLAGQIPVNAQIRFNPLGAFEEMQPSTEASFSTADAKNNS,not soluble
8,MKLKQLEGLLGDLEQFSNPKNRSVIGFDIDPESLETATLNAEELEVEIDFVQCDITKLELKGLIVDTVVMNPPFGTRKKGADMEFLSAAMKVASKAVYSLHKTSTRELRYDLPKLYKFHKRKEVDIAVDLWRFEPRQN,soluble
9,MQTLQEILQQPELENKLLNQAKTVGFVTAMACCPNVLPPEEWLPFLWGGEEIAPFSDPIQLENYFEHIIALWNETRSQLLEGNWQWPTGYLLDEAEIVNQEVRDFCEGMLQGWQLARDDWEVLMPENSSDNTLLGGVLLSLSMLYDPETSIATLYEQGFTGLEQFAEIYHAIPVMLCGITQRGVTLAEAQ,not soluble
10,MGSDKIHHHHHHMNNFFTRVDNLSRLSVEKHNVAFSLFDWPAHIAEDTWWQSPDVLSIALTDHIEQWDEAQLIKLAKWECINSFSLNYTGELELIQEVSRILDKVALSDAREYLYHLIDEENQHMWYFQKFCRAYGGKVYPNKKFQIEKQLMSPAKEHFLVFARILIFEEIGHYYNIQNARDSRVHPFVREINEAHYKDESRHIAYGRQVLEHLAKDAITDEGDALWLGQQLDKSIAINIAALYNPQAYRDAGITKGMALRESLLNHPNRIELHETKLLGSFKRHAERLGITLTDTRK,not soluble
11,MAHHHHHHMEDVRPVTSPLTEDTAYTRCLRGAKEAKERGNTAISDKNFKEASFQYKKALLFLSEYIPGDGGFSEDALIDMLARRRGVATPRDLSPGRKSELMDLYVTVMNNLAVADMRLCRFDKGVEHTTKVLNVPGQEKNRKALWRRAECHVQRGHIEEAEKDVDVLAACAEGNGQQSEEVVEQLRMKIKEKKKQLVREERAICKKMFEHGS,soluble
12,MGSDKIHHHHHHMNLKNTKAGFLLSAEHEKLPIAELNALIDIFSLEGNLNCFKNYVILDSSISEEIIKKMVKRGGYTNEGHVIFSESPIINQNVDETLENFFKSSETLDFPVERDETFAVRVLKLEKESPFNSMEIERKLGGIIKKKTSAQVSLKNPSKTVKVVISNDKMYTGIVIEKRDVEYFQNNRPHLRAYFHPGCIMPKLARCLVNLSRVKEGEIVLDPFCGTGGFLIEAGFLGCKLIGSDIDEQMVNGALLNLNTYDLSKQVISIKENDAKNVSKYLEALKIEKIDGIVTDPPYGISTSKKGDMLEIFEKIVDVLKDNDYLVFAAPNKMELDLNLVEFYEMRVHKSLTRYIHVYRKN,not soluble
13,MYSKILGTGSYLPSQVRTNADLEKMVETSDEWIVARTGIRERRIAADNETVADMAFFAAQNAINMAGIDKHDIDMIIVATTSASHTFPSAACQVQGKLGIKGCPAFDLAAACSGFMYALSIADQHVKSGMCKHVLVIGADALSKTCDPTDRSTIILFGDGAGAVVVGASNEPGILSTHIHADGEFGDLLSLEVPVRGGDSDKWLHMAGNEVFKVAVTQLSKLVVDTLKANNMHKSELDWLVPHQANYRIISATAKKLSMSLDQVVITLDRHGNTSAATVPTALDEAVRDGRIQRGQMLLLEAFGGGFTWGSALVKF,not soluble
14,MIGSTSDGLVPGNTDMPATPTTALTALRTPHPPTGGESMHPRTRTAPALLFAVCLTALAAYPAAADDPVPTTERVSVTLDGAQIDDPSYRPQLTSKGGVVYTSDGPVWSTDHNGVSDAYRNSERVSYNMGAARSYDPSACHTARMIAFVSDRTPAGGTTPSVYVRNTPVGKLSYASHGYQGVPFTWAGQPAMSADCQWMAFSATLPATPDHVEQPRVYRYRIYDGTIEQVSPDSADGSRAAVRPSISADGRYVAYQSSIPHPGGPANDSDIYVRDLETGTLEKASVGRHGRPADRASTGPSLSADGRHVAFDSYASNLAPGDTNGTVNVFVRDLDAGTTRLVKGAGRHAYTAEAALSGDGLHLAYVSAGIRGSRGVPAVYLRDLATGRTRLISVDTRGHRNDRAAGNPSVNPDGTAVAFDSASPDLVPGDTNGTVDVFLRRLGSPEALEHHHHHH,soluble
15,MFGFPTATLLDCHGRYAQNVAFFNVMTEAHHKYDHSEATGSSSWDIQNSFRREKLEQKSPDSKTLQEDSPGVRQRVYECQECGKSFRQKGSLTLHERIHTGQKPFECTHCGKSFRAKGNLVTHQRIHTGEKPYQCKECGKSFSQRGSLAVHERLHTGQKPYECAICQRSFRNQSNLAVHRRVHSGEKPYRCDQCGKAFSQKGSLIVHIRVHTGLKPYACTQCRKSFHTRGNCILHGKIHTGETPYLCGQCGKSFTQRGSLAVHQRSCSQRLTL,soluble
16,MVEPQHNVMQMGGDFANNPNAQQFIDKMVNKHGFDRQQLQEILSQAKRLDSVLRLMDNQAPTTSVKPPSGPNGAWLRYRKKFITPDNVQNGVVFWNQYEDALNRAWQVYGVPPEIIVGIIGVETRWGRVMGKTRILDALATLSFNYPRRAEYFSGELETFLLMARDEQDDPLNLKGSFAGAMGYGQFMPSSYKQYAVDFSGDGHINLWDPVDAIGSVANYFKAHGWVKGDQVAVMANGQAPGLPNGFKTKYSISQLAAAGLTPQQPLGNHQQASLLRLDVGTGYQYWYGLPNFYTITRYNHSTHYAMAVWQLGQAVALARVQ,soluble
17,MGSSHHHHHHSSENLYFQGHMSSRAETPRVPFLDLKAAYEELRAETDAAIARVLDSGRYLLGPELEGFEAEFAAYCETDHAVGVNSGMDALQLALRGLGIGPGDEVIVPSHTYIASWLAVSATGATPVPVEPHEDHPTLDPLLVEKAITPRTRALLPVHLYGHPADMDALRELADRHGLHIVEDAAQAHGARYRGRRIGAGSSVAAFSFYPGKNLGCFGDGGAVVTGDPELAERLRMLRNYGSRQKYSHETKGTNSRLDEMQAAVLRIRLAHLDSWNGRRSALAAEYLSGLAGLPGIGLPVTAPDTDPVWHLFTVRTERRDELRSHLDARGIDTLTHYPVPVHLSPAYAGEAPPEGSLPRAESFARQVLSLPIGPHLERPQALRVIDAVREWAERVDQA,soluble
18,MQQERTVKVSKYLSKHLRHQPERIGLTPDEGGWVEIDALVAAAAAHGFPFTRQELDHVVATNDKRRFAVEGTRIRASQGHSIAVDLRLPVATPPPYLYHGTVARHLEAIRAEGLRPMNRHDVHLSPDRETATRVGARRGRPVVLPVDAATMHRDGHVFHVSANGVWLTQHVPSRYLRFPAPHLEHHHHHH,not soluble
19,GSGIMAASRPLSRFWEWGKNIVCVGRNYADHVREMRSAVLSEPVLFLKPSTAYAPEGSPILMPAYTRNLHHELELGVVMGKRCRAVPEAAAMDYVGGYALCLDMTARDVQDECKKKGLPWTLAKSFTASCPVSAFVPKEKIPDPHKLKLWLKVNGELRQEGETSSMIFSIPYIISYVSKIITLEEGDIILTGTPKGVGPVKENDEIEAGIHGLVSMTFKVEKPEY,soluble
20,MIDIQGIKEALPHRYPMLLVDRVLEVSEDTIVAIKNVTINEPFFNGHFPQYPVMPGVVIMEALAQTAGVLELSKPENKGKLVFYAGMDKVKFKKQVVPGDQLVMTATFVKRRGTIAVVEAKAEVDGKLAASGTLTFAIGN,soluble
21,MSLKSALRLYNRASFKASHKVIEEYSTSFSLSTWLLSPRIRNDIRNLYAVVRIADEIVDGTAHAAGCSTAKIEEILDAYEIAVLAAPQQRFNTDLVLQAYGETARRCDFEQEHVIAFFASMRKDLKANTHDPDSFTTYVYGSAEVIGLLCLSVFNQGRTISKKRLEIMQNGARSLGAAFQKINFLRDLAEDQQNLGRFYFPKTSQGTLTKEQKEDLIADIRQDLAIAHDAFPEIPVQARIGVISAYLLFQKLTDRIEATPTADLLRERIRVPLHIKLSTLARATMKGLSMSIYRKNSEGHHHHHH,soluble
